This passage reports percent unbound DNA (% unbound DNA) results from PMC5936033.

The test system of this series is GST-VP1 (Chicken anaemia virus (strain CAU269/7?)). Description: EMSA (agarose). Particulars: 50 mM Tris-HCl pH 7.5, 120 mM KCl, 1.0 mM EDTA, 0.5 mM DTT, 30 mg/ml BSA (so in the source); 100 ng DNA in 20 ul, 37 C, 30 min (Results: 1 h); 0.8% agarose/TAE. Text …. On the technique in general: In EMSA bound probe runs differently from free probe, usually more slowly.
For CAV genome minus-strand linear ssDNA, the percent unbound DNA (% unbound DNA) stood at 53.3.
M13mp18 ssDNA yielded a percent unbound DNA (% unbound DNA) of 46.5.
Substance linear pcDNA3.1 (EcoRI) displayed a percent unbound DNA (% unbound DNA) of 84.7.
On to pCAV, open circular (form I), for which the percent unbound DNA (% unbound DNA) is 59.6.
The value for pCAV, supercoiled (form II) was 82.6.
